We go through four proteins from article PMC3942289, “Characterization of Ten Heterotetrameric NDP-Dependent Acyl-CoA Synthetases of the Hyperthermophilic Archaeon Pyrococcus furiosus” (Archaea, 2014).

Holding throughout (assay type): biochemical, Pyrococcus furiosus
Substrate in series [1]: CC(C)(COP(=O)(O)OP(=O)(O)OC[C@H]1O[C@@H](n2cnc3c(N)ncnc32)[C@H](O)[C@@H]1OP(=O)(O)O)[C@@H](O)C(=O)NCCC(=O)NCCSC(=O)Cc1ccccc1
Put plainly: DTNB assay of released CoASH, 96-well. To be noted: forward reaction, 2 mM ADP, 10 mM K2HPO4, 2 mM MgCl2, pH 7.0, 80°C. The text has this: (§1) DTNB assay of released CoASH, 96-well on ACS2-A

Substrate in series [2]: CC(=O)SCCNC(=O)CCNC(=O)[C@H](O)C(C)(C)COP(=O)(O)OP(=O)(O)OC[C@H]1O[C@@H](n2cnc3c(N)ncnc32)[C@H](O)[C@@H]1OP(=O)(O)O
Nature of the series: DTNB assay of released CoASH, 96-well. To be noted: forward reaction, 2 mM ADP, 10 mM K2HPO4, 2 mM MgCl2, pH 7.0, 80°C.
Source text: as §1

Substrate in series [3]: CC(C)CC(=O)SCCNC(=O)CCNC(=O)[C@H](O)C(C)(C)COP(=O)(O)OP(=O)(O)OC[C@H]1O[C@@H](n2cnc3c(N)ncnc32)[C@H](O)[C@@H]1OP(=O)(O)O
Nature of the series: DTNB assay of released CoASH, 96-well. To be noted: forward reaction, 2 mM ADP, 10 mM K2HPO4, 2 mM MgCl2, pH 7.0, 80°C.
Source text: as §1

Substrate in series [4]: CC(=O)SCCNC(=O)CCNC(=O)[C@H](O)C(C)(C)COP(=O)(O)OP(=O)(O)OC[C@H]1O[C@@H](n2cnc3c(N)ncnc32)[C@H](O)[C@@H]1OP(=O)(O)O
Nature of the series: DTNB assay of released CoASH, 96-well. To be noted: forward reaction, 2 mM ADP, 10 mM K2HPO4, 2 mM MgCl2, pH 7.0, 80°C. The text has this:
DTNB assay of released CoASH, 96-well on ACS4-A
This is another data set of the same source.

Substrate in series [5]: Nc1nc2c(ncn2[C@@H]2O[C@H](COP(=O)(O)OP(=O)(O)OP(=O)(O)O)[C@@H](O)[C@H]2O)c(=O)[nH]1
Put plainly: colorimetric phosphate release, 96-well. To be noted: reverse reaction (acid + CoA), 20 mM acid substrate, 0.5 mM CoA, 2 mM MgCl2, pH 7.0, 80°C.

Substrate in series [6]: Nc1ncnc2c1ncn2[C@@H]1O[C@H](COP(=O)(O)OP(=O)(O)OP(=O)(O)O)[C@@H](O)[C@H]1O
Put plainly: colorimetric phosphate release, 96-well. To be noted: reverse reaction (acid + CoA), 20 mM acid substrate, 0.5 mM CoA, 2 mM MgCl2, pH 7.0, 80°C.

Substrate in series [7]: CC(=O)SCCNC(=O)CCNC(=O)[C@H](O)C(C)(C)COP(=O)(O)OP(=O)(O)OC[C@H]1O[C@@H](n2cnc3c(N)ncnc32)[C@H](O)[C@@H]1OP(=O)(O)O
Put plainly: DTNB assay of released CoASH, 96-well. The note with it: forward reaction, 2 mM ADP, 10 mM K2HPO4, 2 mM MgCl2, pH 7.0, 80°C. The text has this:
DTNB assay of released CoASH, 96-well on ACS1-A
This is another data set of the same source.

Substrate in series [8]: CC(=O)SCCNC(=O)CCNC(=O)[C@H](O)C(C)(C)COP(=O)(O)OP(=O)(O)OC[C@H]1O[C@@H](n2cnc3c(N)ncnc32)[C@H](O)[C@@H]1OP(=O)(O)O
Nature of the series: DTNB assay of released CoASH, 96-well. The note with it: forward reaction, 2 mM ADP, 10 mM K2HPO4, 2 mM MgCl2, pH 7.0, 80°C. The text has this:
DTNB assay of released CoASH, 96-well on ACS3-A
The source holds these as a separate data set.

B1: ACS2-A (Pyrococcus furiosus DSM 3638) (protein)
chain 1: MLDYFFNPRGIAVIGASNDPKKLGYEVFKNLKEYQGGKVYPVNVREEEVQGVKAYKSVKEIPGEVDLAIIVVPKKFVKQTLIECGEKGVKGVVIITAGFGETGEEGKREEKELVEIAHKYGMRIIGPNCVGIMNTHANLNATFITVAKKGNVAFISQSGALGAGIVYKTIKEDIGFSKFISVGNMADLDFADLMEYLADTQEDKAIALYIEGIKDGRRFIEVAKKVTKKKPVIALKAGKSESGSRAAASHTGSLAGSWKIYEAAFKQSGVLVANTIDEMLSMARAFTQPLPKGNRVAIMTNAGGPGVLTADEIDKRGLKLANLEEKTIEELRSFLPPMAAVKNPVDMIASARGEDYYRTAKLLLQDPNVDILIAICVVPTFAGMTPTEHAEGIIRAVKEVNNGKPVLALFMAGYVSEKAKELLEKNGIPTYERPEDVAAAAYALVQQAKNVGGGVNG
chain 2: MKGEALKIIEEVLAQGRTAMVEYEAKQVLKAYGLPVPEEKLAKTLDEALKYAEEIGYPVAMKLMSPQILHKSDAKVVMLNIKSPEELKKKWEEIHENARKYRPDAEIFGVLIAPMLKPGREVIIGVTEDPQFGHAIMFGLGGIFVEILKDVTFRIIPITEKDARKMITEIKAYPILAGARGEEPADIEAIVDMLLKVSKLVDDLKDYIKEMDLNPVFVYRKGEGAVVVDARIILKG
notes: alpha (pET24a) and beta-A (pET21b) coexpressed in E. coli BL21(DE3) pRIL, untagged, heat-treated and desalted; alpha2beta2 ~140 kDa; Printed PF1837 primers identical to PF1838 (probable misprint)
In the case of B1, the Km (as a rule, the concentration of substrate that gives half-maximal velocity) worked out at 3320 ± 1320 µM in series [1], 350 ± 2 µM in series [2] and 466 ± 119 µM in series [3]. The specificity constant (kcat/Km) (commonly the second-order rate constant that governs catalysis at low substrate concentration) is 150000 M⁻¹ s⁻¹ in series [1], 114000 M⁻¹ s⁻¹ in series [2] and 109000 M⁻¹ s⁻¹ in series [3].

B2: ACS4-A (Pyrococcus furiosus DSM 3638) (protein)
chain 1: MRYFFYPNSVAIFGSFREGAIAREILRNIVEGGFEGKIIPVNPKGGEVEVAGKKFNIKEKLDEPVDVSIIAIPAKLVPELIRGLKGLTKGAVVISAGFSEVGNVELEKELIKAAKEAGIRVIGPNCAGIFGVHAKFYGSFEVRVNPGGLALISQSGAFGGAALAMGNEEGIGFSAFVSYGNAADLDESDFLRFFADDENTRVIGLYIEGVKDGRKFLDALRYAASKKPVIILKAGKSRAGARAAASHTGSLAGSYEIYRAAFRQAGAIEVEEMEELFDAAKAFEMYERAGRRVAIITNSGGPGVLATDKLERLGLEIAKLTEETVEELRSFLPPQCSVKNPVDLIADADYERYKRAIEVVCRDENVDAILVICVPPIFIPSEEIARAVVEANCDKPIIVNFMAGELVREGIKILESKKIKNFPTPERAAKALYWLSLRSSSE
chain 2: MKGEALKIIEEVLAQGRTAMVEYEAKQVLKAYGLPVPEEKLAKTLDEALKYAEEIGYPVAMKLMSPQILHKSDAKVVMLNIKSPEELKKKWEEIHENARKYRPDAEIFGVLIAPMLKPGREVIIGVTEDPQFGHAIMFGLGGIFVEILKDVTFRIIPITEKDARKMITEIKAYPILAGARGEEPADIEAIVDMLLKVSKLVDDLKDYIKEMDLNPVFVYRKGEGAVVVDARIILKG
notes: as for B1
For B2, in series [4], the Km stood at 242 ± 46 µM and the kcat/Km amounted to 119000 M⁻¹ s⁻¹.

B3: ACS1-A (Pyrococcus furiosus DSM 3638) (protein)
chain 1: MSLEALFNPKSVAVIGASAKPGKIGYAIMKNLIEYGYEGKIYPVNIKGGEIEINGRKFKVYKSVLEIPDEVDMAVIVVPAKFVPQVLEECGQKGVKVVPIISSGFGELGEEGKKVEQQLVETARKYGMRILGPNIFGVVYTPAKLNATFGPTDVLPGPLALISQSGALGIALMGWTILEKIGLSAVVSVGNKADIDDADLLEFFKDDENTRAILIYMEGVKDGRRFMEVAKEVSKKKPIIVIKAGRSERGAKAAASHTGSLAGSDKVYSAAFKQSGVLRAYTIGEAFDWARALSNLPEPQGDNVVIITNGGGIGVMATDAAEEEGLHLYDNLEELKIFANHMPPFGSYKNPVDLTGMADGKSYEGAIRDALAHPEMHSIAVLYCQTAVLDPRELAEIVIREYNESGRKKPLVVAIVGGIEAKEAIDMLNENGIPAYPEPERAIKALSALYKWSKWKAKHKEK
chain 2: MKGEALKIIEEVLAQGRTAMVEYEAKQVLKAYGLPVPEEKLAKTLDEALKYAEEIGYPVAMKLMSPQILHKSDAKVVMLNIKSPEELKKKWEEIHENARKYRPDAEIFGVLIAPMLKPGREVIIGVTEDPQFGHAIMFGLGGIFVEILKDVTFRIIPITEKDARKMITEIKAYPILAGARGEEPADIEAIVDMLLKVSKLVDDLKDYIKEMDLNPVFVYRKGEGAVVVDARIILKG
notes: alpha (pET24a) and beta-A (pET21b) coexpressed in E. coli BL21(DE3) pRIL, untagged (stop codons in primers), heat-treated and desalted; alpha2beta2 ~140 kDa; Printed PF1837 primers are identical to those of PF1838 (probable misprint)
Regarding B3, the results for the Km in series [5], in series [6] and in series [7] were 223 ± 58 µM, 132 ± 19 µM and 137 ± 91 µM, respectively. For the same protein, the kcat/Km came out at 10000 M⁻¹ s⁻¹ in series [5], 140000 M⁻¹ s⁻¹ in series [6] and 140000 M⁻¹ s⁻¹ in series [7].

B4: ACS3-A (Pyrococcus furiosus DSM 3638) (protein)
chain 1: MTVNLDFLFYPKSVAVIGASATPGKVGNAIMKSLAANFNGKVYPVNVKEGEIEINGKKFKVYRSIKEIPDEVDVAVIAVPAKFVPDVIDECGEKGVKGAIVISAGFKEAGRADLEEELVKRARKWGIRVVGPNCLGVTNLENGFDCNFNPPERQARPKFGPIAFMSQSGAFGAAILDWAARHEVGMSKFISLGNMADLDESDFMLYLKDDPKTKVITAYIEGVKDGRKFFNAAKETTKVKPVIILKAGRTEAGAKAAASHTGSLAGSYKIYQAAFEQTGVLAAKSMRQLFNYAKALAMQSPAKGDRVAIVTNGGGAGVMMSDGLLEAGLKLAEFTEETKEKFRKAIEEGLLPEHMSYKNPVDVIGDAPSSRYETAIRYVLEDPNVDIVVVIALFQSPALDEGIVDVMERVKEYGKPIVFVAPGGEYPERMARKIEEKGIPVFETVEDGVDAVYALIKYGKYLAEL
chain 2: MKGEALKIIEEVLAQGRTAMVEYEAKQVLKAYGLPVPEEKLAKTLDEALKYAEEIGYPVAMKLMSPQILHKSDAKVVMLNIKSPEELKKKWEEIHENARKYRPDAEIFGVLIAPMLKPGREVIIGVTEDPQFGHAIMFGLGGIFVEILKDVTFRIIPITEKDARKMITEIKAYPILAGARGEEPADIEAIVDMLLKVSKLVDDLKDYIKEMDLNPVFVYRKGEGAVVVDARIILKG
notes: as for B1
B4: in series [8], the Km was 474 ± 165 µM and the kcat/Km worked out at 12000 M⁻¹ s⁻¹.
